Residue numbers refer to the chain shown, from its start.
B1: Fab 9O12, Fab fragment of the mouse monoclonal IgG1,k 9O12 (Fab, V domains shown)
VH: QVQLQESGAELVKPGASVKMSCKASGYTFTSYNMHWVKQTPGQGLEWIGGIYPGNGDTSFNQKFKGKATLTADKSSRTAYMQLSSLTSEDSAVYYCARGTVVGDWYFDVWGAGTTLTVSS
VL: DVLMTQTPLSLPVSLGDQASISCRSSQSLENSNGNTYLNWYLQKPGQSPQLLIYRVSNRFSGVLDRFSGSGSGTDFTLKISRVEAEDLGVYFCLQLTHVPWTFGGGTKLEIK
B2: ACT005, humanized anti-GPVI Fab (VL2b + VH2) (Fab, V domains shown)
VH: EVQLVESGGGLVQPGGSLRLSCAASGYTFTSYNMHWVRQAPGKGLEWVGGIYPGNGDTSYNADFKRRFTFSLDTSKSTAYLQMNSLRAEDTAVYYCARGTVVGDWYFDVWGQGTLVTVSS
VL: DIQMTQSPSSLSASVGDRVTITCSASQSLENSNGNTYLNWYQQKPGKAPKLLIYRVSNRFSGVPSRFSGSGSGTDFTLTISSLQPEDFATYYCLQLTHVPWTFGQGTKVEIK
B3: ACT016, humanized anti-GPVI Fab (VL8b + VH2) (Fab, V domains shown)
VH: B2 VH
VL: B2 VL with S24R, A25S, L78F, F88I, K112T
B4: ACT006, humanized anti-GPVI Fab (VL2b + VH3) (Fab, V domains shown)
VH: QVQLVQSGAEVKKPGASVKVSCKASGYTFTSYNMHWVRQAPGQGLEWMGGIYPGNGDTSYNQKFQGRVTMTRDTSTSTVYMELSSLRSEDTAVYYCARGTVVGDWYFDVWGQGTLVTVSS
VL: B2 VL
B5: ACT017, humanized anti-GPVI Fab (VL8b + VH3) (Fab, V domains shown)
VH: B4 VH
VL: B2 VL with S24R, A25S, L78F, F88I, K112T
B6: ACT010, humanized anti-GPVI Fab (VL3b + VH3) (Fab, V domains shown)
VH: B4 VH
VL: DIVMTQTPLSLSVSVGERVTITCKSSQSLENSNGNTYLNWYLQKPGQAPQLLIYRVSNRFSGVPDRFSGSGSGTDFTLTISRVEAEDVGVYYCLQLTHVPWTFGQGTKLEIK

biological target: T1, Recombinant GPVI-Fc (extracellular domain of human GPVI fused to human IgG1 Fc domain) (Homo sapiens, UniProt Q9HCN6); assay: SPR
T1 sequence (Q9HCN6 21-267): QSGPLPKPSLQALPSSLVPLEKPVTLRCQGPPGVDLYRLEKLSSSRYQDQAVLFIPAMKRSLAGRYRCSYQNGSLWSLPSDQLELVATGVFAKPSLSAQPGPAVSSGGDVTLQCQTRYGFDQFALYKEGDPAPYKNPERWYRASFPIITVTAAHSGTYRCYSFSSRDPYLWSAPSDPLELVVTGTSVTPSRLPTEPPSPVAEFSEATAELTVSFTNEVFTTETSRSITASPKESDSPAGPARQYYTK

Binder | Kd [nM]
B1 | 17
B2 | < 25
B3 | < 25
B4 | < 8
B5 | 4.1

biological target: T1, Recombinant GPVI-Fc (extracellular …); assay: ELISA

Binder | binding result
B6 | binds
